Reference: US20210246166A1 (Bayer, published 2021)
Numbered stars: 1 amine (or outer) side, 2 acyl side, 3 side chain; on linkers, the order of the positions; unused ones are H or OH. Bridge positions count the residues as written; N and C are the ends. Square brackets hold non-standard residues; d marks the D form. Ends that are not written are not given here. (S)‑3‑(2H-tetrazol-5-yl)propanoic acid = (S)-3-(2H-tetrazol-5-yl)propanoic acid; Phe(2,5-diF) = O=C([C@H](Cc1cc(F)ccc1F)N[*:1])[*:2]; PEG9 = NCCOCCOCCOCCOCCOCCOCCOCCOCCOCCC(=O)O; Pro(4-spirocPr) = O=C(O)[C@@H]1CC2(CC2)CN1; Oic = O=C(O)[C@@H]1C[C@@H]2CCCC[C@@H]2N1; tBuAla = CC(C)(C)C[C@H](N)C(=O)O; Pen = CC(C)(S)[C@H](N)C(=O)O; NMeC = CN[C@@H](CS)C(=O)O; NMeA = CN[C@@H](C)C(=O)O; Nle = CCCC[C@H](N)C(=O)O; PEG2 = NCCOCCOCCC(=O)O; Sar = CNCC(=O)O

B1: AIC+SRS-((tBu)A)-P-((6S)-5-Azaspiro[2.4]heptane-6-carboxylic acid)-I-(Pen)+IPD-OH (peptide)
peptide: AICSRS[tBuAla]P[Pro(4-spirocPr)]I[Pen]IPD-OH
modifications: disulfide 3-11; N-terminus assumed
SMILES: CC[C@H](C)[C@H](NC(=O)[C@H](C)N)C(=O)N[C@H]1CSSC(C)(C)[C@@H](C(=O)N[C@H](C(=O)N2CCC[C@H]2C(=O)N[C@@H](CC(=O)O)C(=O)O)[C@@H](C)CC)NC(=O)[C@H]([C@@H](C)CC)NC(=O)[C@@H]2CC3(CC3)CN2C(=O)[C@@H]2CCCN2C(=O)[C@H](CC(C)(C)C)NC(=O)[C@H](CO)NC(=O)[C@H](CCCNC(=N)N)NC(=O)[C@H](CO)NC1=O
B2: (Nle)-IC+SRS-((tBu)A)-PPI-((N-Me)C)+I-NH2 (peptide)
peptide: [Nle]ICSRS[tBuAla]PPI[NMeC]I-NH2
modifications: disulfide 3-11; N-terminus assumed
SMILES: CCCC[C@H](N)C(=O)N[C@H](C(=O)N[C@H]1CSSC[C@@H](C(=O)N[C@H](C(N)=O)[C@@H](C)CC)N(C)C(=O)[C@H]([C@@H](C)CC)NC(=O)[C@@H]2CCCN2C(=O)[C@@H]2CCCN2C(=O)[C@H](CC(C)(C)C)NC(=O)[C@H](CO)NC(=O)[C@H](CCCNC(=N)N)NC(=O)[C@H](CO)NC1=O)[C@@H](C)CC
B3: AIC+SRSLP-((6S)-5-Azaspiro[2.4]heptane-6-carboxylic acid)-I-(Pen)+IPD-OH (peptide)
peptide: AICSRSLP[Pro(4-spirocPr)]I[Pen]IPD-OH
modifications: disulfide 3-11; N-terminus assumed
SMILES: CC[C@H](C)[C@H](NC(=O)[C@H](C)N)C(=O)N[C@H]1CSSC(C)(C)[C@@H](C(=O)N[C@H](C(=O)N2CCC[C@H]2C(=O)N[C@@H](CC(=O)O)C(=O)O)[C@@H](C)CC)NC(=O)[C@H]([C@@H](C)CC)NC(=O)[C@@H]2CC3(CC3)CN2C(=O)[C@@H]2CCCN2C(=O)[C@H](CC(C)C)NC(=O)[C@H](CO)NC(=O)[C@H](CCCNC(=N)N)NC(=O)[C@H](CO)NC1=O
B4: AIC+SRS-((tBu)A)-P-((6S)-5-Azaspiro[2.4]heptane-6-carboxylic acid)-I-((N-Me)C)+IPD-NH2 (peptide)
peptide: AICSRS[tBuAla]P[Pro(4-spirocPr)]I[NMeC]IPD-NH2
modifications: disulfide 3-11; N-terminus assumed
SMILES: CC[C@H](C)[C@H](NC(=O)[C@H](C)N)C(=O)N[C@H]1CSSC[C@@H](C(=O)N[C@H](C(=O)N2CCC[C@H]2C(=O)N[C@@H](CC(=O)O)C(N)=O)[C@@H](C)CC)N(C)C(=O)[C@H]([C@@H](C)CC)NC(=O)[C@@H]2CC3(CC3)CN2C(=O)[C@@H]2CCCN2C(=O)[C@H](CC(C)(C)C)NC(=O)[C@H](CO)NC(=O)[C@H](CCCNC(=N)N)NC(=O)[C@H](CO)NC1=O
B5: AIC+SRS-((tBu)A)-PPI-((N-Me)C)+I-NH2 (peptide)
peptide: AICSRS[tBuAla]PPI[NMeC]I-NH2
modifications: disulfide 3-11; N-terminus assumed
SMILES: CC[C@H](C)[C@H](NC(=O)[C@@H]1CSSC[C@H](NC(=O)[C@@H](NC(=O)[C@H](C)N)[C@@H](C)CC)C(=O)N[C@@H](CO)C(=O)N[C@@H](CCCNC(=N)N)C(=O)N[C@@H](CO)C(=O)N[C@@H](CC(C)(C)C)C(=O)N2CCC[C@H]2C(=O)N2CCC[C@H]2C(=O)N[C@@H]([C@@H](C)CC)C(=O)N1C)C(N)=O
B6: KIC+SRS-((tBu)A)-PPI-((N-Me)C)+IPD-NH2 (peptide)
peptide: KICSRS[tBuAla]PPI[NMeC]IPD-NH2
modifications: disulfide 3-11; N-terminus assumed
SMILES: CC[C@H](C)[C@H](NC(=O)[C@@H](N)CCCCN)C(=O)N[C@H]1CSSC[C@@H](C(=O)N[C@H](C(=O)N2CCC[C@H]2C(=O)N[C@@H](CC(=O)O)C(N)=O)[C@@H](C)CC)N(C)C(=O)[C@H]([C@@H](C)CC)NC(=O)[C@@H]2CCCN2C(=O)[C@@H]2CCCN2C(=O)[C@H](CC(C)(C)C)NC(=O)[C@H](CO)NC(=O)[C@H](CCCNC(=N)N)NC(=O)[C@H](CO)NC1=O
B7: ((N-Me)A)-IC+SRS-((tBu)A)-P-(Oic)-I-(Pen)+I-NH2 (peptide)
peptide: [NMeA]ICSRS[tBuAla]P[Oic]I[Pen]I-NH2
modifications: disulfide 3-11; N-terminus assumed
SMILES: CC[C@H](C)[C@H](NC(=O)[C@H]1NC(=O)[C@H]([C@@H](C)CC)NC(=O)[C@@H]2C[C@@H]3CCCC[C@@H]3N2C(=O)[C@@H]2CCCN2C(=O)[C@H](CC(C)(C)C)NC(=O)[C@H](CO)NC(=O)[C@H](CCCNC(=N)N)NC(=O)[C@H](CO)NC(=O)[C@@H](NC(=O)[C@@H](NC(=O)[C@H](C)NC)[C@@H](C)CC)CSSC1(C)C)C(N)=O
B8: AIC+SRS-((tBu)A)-P-((6S)-5-Azaspiro[2.4]heptane-6-carboxylic acid)-I-(Pen)+IPD-NH2 (peptide)
peptide: AICSRS[tBuAla]P[Pro(4-spirocPr)]I[Pen]IPD-NH2
modifications: disulfide 3-11; N-terminus assumed
SMILES: CC[C@H](C)[C@H](NC(=O)[C@H](C)N)C(=O)N[C@H]1CSSC(C)(C)[C@@H](C(=O)N[C@H](C(=O)N2CCC[C@H]2C(=O)N[C@@H](CC(=O)O)C(N)=O)[C@@H](C)CC)NC(=O)[C@H]([C@@H](C)CC)NC(=O)[C@@H]2CC3(CC3)CN2C(=O)[C@@H]2CCCN2C(=O)[C@H](CC(C)(C)C)NC(=O)[C@H](CO)NC(=O)[C@H](CCCNC(=N)N)NC(=O)[C@H](CO)NC1=O
B9: AIC+SRS-((tBu)A)-PPIC+I-NH2 (peptide)
peptide: AICSRS[tBuAla]PPICI-NH2
modifications: disulfide 3-11; N-terminus assumed
SMILES: CC[C@H](C)[C@H](NC(=O)[C@@H]1CSSC[C@H](NC(=O)[C@@H](NC(=O)[C@H](C)N)[C@@H](C)CC)C(=O)N[C@@H](CO)C(=O)N[C@@H](CCCNC(=N)N)C(=O)N[C@@H](CO)C(=O)N[C@@H](CC(C)(C)C)C(=O)N2CCC[C@H]2C(=O)N2CCC[C@H]2C(=O)N[C@@H]([C@@H](C)CC)C(=O)N1)C(N)=O
B10: ((N-Me)A)-IC+SRS-((tBu)A)-PPI-(Pen)+IPD-NH2 (peptide)
peptide: [NMeA]ICSRS[tBuAla]PPI[Pen]IPD-NH2
modifications: disulfide 3-11; N-terminus assumed
SMILES: CC[C@H](C)[C@H](NC(=O)[C@H](C)NC)C(=O)N[C@H]1CSSC(C)(C)[C@@H](C(=O)N[C@H](C(=O)N2CCC[C@H]2C(=O)N[C@@H](CC(=O)O)C(N)=O)[C@@H](C)CC)NC(=O)[C@H]([C@@H](C)CC)NC(=O)[C@@H]2CCCN2C(=O)[C@@H]2CCCN2C(=O)[C@H](CC(C)(C)C)NC(=O)[C@H](CO)NC(=O)[C@H](CCCNC(=N)N)NC(=O)[C@H](CO)NC1=O
B11: RIC+SRS-((tBu)A)-PPI-((N-Me)C)+I-NH2 (peptide)
peptide: RICSRS[tBuAla]PPI[NMeC]I-NH2
modifications: disulfide 3-11; N-terminus assumed
SMILES: CC[C@H](C)[C@H](NC(=O)[C@@H]1CSSC[C@H](NC(=O)[C@@H](NC(=O)[C@@H](N)CCCNC(=N)N)[C@@H](C)CC)C(=O)N[C@@H](CO)C(=O)N[C@@H](CCCNC(=N)N)C(=O)N[C@@H](CO)C(=O)N[C@@H](CC(C)(C)C)C(=O)N2CCC[C@H]2C(=O)N2CCC[C@H]2C(=O)N[C@@H]([C@@H](C)CC)C(=O)N1C)C(N)=O
B12: ((N-Me)G)-IC+SRS-((2,5-Difluoro)F)-PPI-(Pen)+IPD-OH (peptide)
peptide: [Sar]ICSRS[Phe(2,5-diF)]PPI[Pen]IPD-OH
modifications: disulfide 3-11; N-terminus assumed
SMILES: CC[C@H](C)[C@H](NC(=O)CNC)C(=O)N[C@H]1CSSC(C)(C)[C@@H](C(=O)N[C@H](C(=O)N2CCC[C@H]2C(=O)N[C@@H](CC(=O)O)C(=O)O)[C@@H](C)CC)NC(=O)[C@H]([C@@H](C)CC)NC(=O)[C@@H]2CCCN2C(=O)[C@@H]2CCCN2C(=O)[C@H](Cc2cc(F)ccc2F)NC(=O)[C@H](CO)NC(=O)[C@H](CCCNC(=N)N)NC(=O)[C@H](CO)NC1=O

molecular target: T1, recombinant human MASP1 active protease (amino acids 297-699, C-terminal His Tag) (human, UniProt P48740 297-699); test: cell-based or functional assay
T1 sequence: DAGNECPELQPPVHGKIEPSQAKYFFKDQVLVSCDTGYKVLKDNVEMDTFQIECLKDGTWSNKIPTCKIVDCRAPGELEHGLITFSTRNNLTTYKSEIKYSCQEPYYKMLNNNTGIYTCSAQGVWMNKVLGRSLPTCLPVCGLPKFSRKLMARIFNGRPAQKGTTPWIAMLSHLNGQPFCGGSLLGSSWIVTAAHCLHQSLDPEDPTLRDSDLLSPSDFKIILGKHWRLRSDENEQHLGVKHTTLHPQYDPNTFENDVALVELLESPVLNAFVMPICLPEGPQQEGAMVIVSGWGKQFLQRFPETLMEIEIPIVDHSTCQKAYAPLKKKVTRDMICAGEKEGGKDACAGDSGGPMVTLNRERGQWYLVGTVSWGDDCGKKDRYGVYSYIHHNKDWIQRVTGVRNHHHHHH

human MASP1 IC50 [µM]	Binder
0.00157	B1
0.0015	B2
0.00165	B3
0.0018	B4
0.0015	B5
0.0018	[Sar]ICSRS[tBuAla]PPI[Pen]IP[(S)‑3‑(2H-tetrazol-5-yl)propanoic acid]-NH2 (disulfide 3-11) [((N-Me)G)-IC+SRS-((tBu)A)-PPI-(Pen)+IP-((S)-3-(2H-tetrazol-5-yl)propanoic acid)-NH2]
0.0018	[Sar]ICSRS[tBuAla]PPI[Pen]IP-{PEG9-NH2} (disulfide 3-11) [((N-Me)G)-IC+SRS-((tBu)A)-PPI-(Pen)+IP-(PEG9(31 atoms))-NH2]
0.00165	B6
0.0017	[Sar]ICSRS[tBuAla]PPI[Pen]IP[PEG2]-NH2 (disulfide 3-11; also: HCl salt) [((N-Me)G)-IC+SRS-((tBu)A)-PPI-(Pen)+IP-(PEG1(10 atoms))-NH2 (HCl salt)]
0.0018	B7
0.00183	B8
0.00153	AICSRS[tBuAla]PPI[NMeC]IPD-NH2 (disulfide 3-11; also: HCl salt) [AIC+SRS-((tBu)A)-PPI-((N-Me)C)+IPD-NH2 (HCl salt)]
0.0017	B9
0.00143	B10
0.0017	B11

molecular target: T2, Recombinant human MASP1 enzyme (fragment corresponding to amino acids 297-699, C-terminal His Tag) (human, UniProt P48740 297-699); test: cell-based or functional assay
T2 sequence: T1 sequence

human MASP1 IC50 [µM]	Binder
0.018	B12

molecular target: recombinant human MASP2 active protease (amino acids 297-686, C-terminal His Tag) (human, UniProt O00187 297-686); test: cell-based or functional assay
Sequence (O00187 other isoform, or with tags, fused parts or gaps limits assumed): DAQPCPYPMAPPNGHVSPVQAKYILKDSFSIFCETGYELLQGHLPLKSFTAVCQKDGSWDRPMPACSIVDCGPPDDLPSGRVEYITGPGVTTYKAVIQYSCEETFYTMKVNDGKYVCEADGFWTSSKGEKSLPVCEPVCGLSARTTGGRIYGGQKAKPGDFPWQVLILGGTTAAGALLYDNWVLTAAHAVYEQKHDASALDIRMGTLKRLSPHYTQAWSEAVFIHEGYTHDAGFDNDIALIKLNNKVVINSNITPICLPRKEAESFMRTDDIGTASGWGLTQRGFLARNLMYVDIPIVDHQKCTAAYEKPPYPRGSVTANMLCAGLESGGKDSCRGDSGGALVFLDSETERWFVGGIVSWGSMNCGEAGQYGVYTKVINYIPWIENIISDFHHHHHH

human MASP2 IC50 [µM]	Binder
0.0177	B1
0.056	B2
0.026	B3
0.04	B4
0.1	B5
0.036	[Sar]ICSRS[tBuAla]PPI[Pen]IP[(S)‑3‑(2H-tetrazol-5-yl)propanoic acid]-NH2 (disulfide 3-11) [((N-Me)G)-IC+SRS-((tBu)A)-PPI-(Pen)+IP-((S)-3-(2H-tetrazol-5-yl)propanoic acid)-NH2]
0.073	[Sar]ICSRS[tBuAla]PPI[Pen]IP-{PEG9-NH2} (disulfide 3-11) [((N-Me)G)-IC+SRS-((tBu)A)-PPI-(Pen)+IP-(PEG9(31 atoms))-NH2]
0.12	B6
0.031	[Sar]ICSRS[tBuAla]PPI[Pen]IP[PEG2]-NH2 (disulfide 3-11; also: HCl salt) [((N-Me)G)-IC+SRS-((tBu)A)-PPI-(Pen)+IP-(PEG1(10 atoms))-NH2 (HCl salt)]
0.076	B7
0.0245	B8
0.14	AICSRS[tBuAla]PPI[NMeC]IPD-NH2 (disulfide 3-11; also: HCl salt) [AIC+SRS-((tBu)A)-PPI-((N-Me)C)+IPD-NH2 (HCl salt)]
0.12	B9
0.098	B10
0.087	B11
